Key:
[1] = target: human CD47 recombinant protein (human) (UniProt Q08722); test: ELISA
[2] = target: cynomolgus monkey CD47 recombinant protein (cynomolgus monkey); test: ELISA

Chain of UniProt Q08722 (Q08722 19-323): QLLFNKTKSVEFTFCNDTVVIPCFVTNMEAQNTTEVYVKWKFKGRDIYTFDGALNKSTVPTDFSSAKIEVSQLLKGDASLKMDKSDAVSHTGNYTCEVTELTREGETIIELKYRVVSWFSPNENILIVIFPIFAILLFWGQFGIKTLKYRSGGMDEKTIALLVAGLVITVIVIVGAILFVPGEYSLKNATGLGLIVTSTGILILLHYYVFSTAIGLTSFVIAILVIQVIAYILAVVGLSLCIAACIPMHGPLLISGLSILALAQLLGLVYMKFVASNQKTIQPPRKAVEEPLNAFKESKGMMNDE

EC50 [1]: 0.59 nM
EC50 [2]: 1.02 nM
Substance: HX009 (bispecific antibody)

From paper PMC11567960
